How the values were obtained:
[1] = molecular target: fully glycosylated CmeA (g2CmeA), soluble periplasmic His6-tagged CmeA (Campylobacter jejuni) (UniProt Q0PBE3); assay: SPR; g0CmeA (1,040 RU) or g2CmeA (900 RU) immobilised on a CM5 chip by amine coupling; CmeC flowed over in 2-fold dilutions from 2 × 10^-7 M; HBS-PE (10 mM HEPES pH 7.4, 3 mM EDTA, 0.005% P20), 25°C, 30 µl/min; constants are of the slow interactions only, the fast interactions could not be fitted
[2] = molecular target: nonglycosylated CmeA (g0CmeA), soluble periplasmic His6-tagged CmeA (Campylobacter jejuni) (UniProt Q0PBE3); assay: as above
[3] = molecular target: CmeC (outer membrane channel of the CmeABC efflux pump) (UniProt Q0PBE5); assay: SPR (Biacore, CM5 chip); conditions: pH 7.4; 25°C; not stated (no salt is listed in the buffer recipes); pH 7.4: 10 mM HEPES (HBS-PE); pH 6.0: 10 mM MES

Substance | Kd [1] [nM] | koff [1] [s⁻¹] | kon [1] [M⁻¹ s⁻¹] | Kd [2] [nM] | koff [2] [s⁻¹] | kon [2] [M⁻¹ s⁻¹] | koff [3] | kon [3]
CmeC, outer membrane channel of CmeABC, 10×His-tagged, expressed in E. coli (natural protein) | 5 | 0.00075 | 150000 | 17 | 0.00085 | 50000 |  | 
g0CmeA (non-glycosylated CmeA, periplasmic fusion protein of the CmeABC efflux pump) |  |  |  |  |  |  | 8.5 ± 1.0 × 10^–4 s^–1 | 5.0 ± 0.8 × 10^4 (M^–1 s^–1)
g2CmeA (fully N-glycosylated CmeA) |  |  |  |  |  |  | 7.5 ± 0.6 × 10^–4 s^–1 | 1.5 ± 0.04 × 10^5 (M^–1 s^−1)

From PMC7683400
